Experimental data as given in publication PMC3202338.

Experiments:
[1] = target: Bodipy conjugated IS_helix (Ser-36 mutated to cysteine); assay: fluorescence polarisation
[2] = target: alternative design: trunc-WT_IS-2 domain (PAK1 residues 87–137) inserted into CFP with glycine-serine linkers [GFP: P42212]; assay: ITC
CFP-PAcKer [GFP: P42212] = assay: ITC
IS_hairpin = assay: ITC
[3] = target: WT_IS domain (residue 83–137 in full-length PAK1 sequence) (UniProt Q13153); assay: ITC
IS_helix = assay: ITC
[4] = target: mero-CFP-PAcKer [GFP: P42212]; assay: other fluorescence titration

Kd [1] [nM] | Kd [2] [nM] | Kd (CFP-PAcKer [GFP: P42212]) [nM] | Kd (IS_hairpin) [nM] | Kd [3] [nM] | Kd (IS_helix) [nM] | Kd [4] [nM] | Substance
15000 | 1650 | 400 | 2600 | 4000 | 1600 | 600 | PAK1 kinase domain (K298R mutant), residues 250–545 (from UniProt Q13153 250-545) (domain or fragment)
 |  | 3300 |  |  |  |  | PAK1^V127E/S144E (full-length PAK1 stabilized in the 'open' state, kinase dead K298R) (from UniProt Q13153 1-545) (enzyme)
